Patent US12104181B2, “Compositions and methods for treating viral infections targeting TRIM7” (THE BOARD OF REGENTS OF THE UNIVERSITY OF TEXAS SYSTEM, priority 2021, dated 2024)

Test system: coxsackievirus B3 (CVB3-GFP)
Type: cell-based
Conditions: HeLa cells, replicate R1; for Percent Infected R1: GFP-positive cells within RFP-positive gate

Molecule	Percent Infected R1 [%]	Z score R1
TRIM24: human RING type E3 ligase expressed from lentiviral vector (protein, UniProt O15164 1-1050, looked up) Transcription intermediary …: MEVAVEKAVAAAAAASAAASGGPSAAPSGENEAESRQGPDSERGGEAARLNLLDTCAVCHQNIQSRAPKLLPCLHSFCQRCLPAPQRYLMLPAPMLGSAETPPPVPAPGSPVSGSSPFATQVGVIRCPVCSQECAERHIIDNFFVKDTTEVPSSTVEKSNQVCTSCEDNAEANGFCVECVEWLCKTCIRAHQRVKFTKDHTVRQKEEVSPEAVGVTSQRPVFCPFHKKEQLKLYCETCDKLTCRDCQLLEHKEHRYQFIEEAFQNQKVIIDTLITKLMEKTKYIKFTGNQIQNRIIEVNQNQKQVEQDIKVAIFTLMVEINKKGKALLHQLESLAKDHRMKLMQQQQEVAGLSKQLEHVMHFSKWAVSSGSSTALLYSKRLITYRLRHLLRARCDASPVTNNTIQFHCDPSFWAQNIINLGSLVIEDKESQPQMPKQNPVVEQNSQPPSGLSSNQLSKFPTQISLAQLRLQHMQQQVMAQRQQVQRRPAPVGLPNPRMQGPIQQPSISHQQPPPRLINFQNHSPKPNGPVLPPHPQQLRYPPNQNIPRQAIKPNPLQMAFLAQQAIKQWQISSGQGTPSTTNSTSSTPSSPTITSAAGYDGKAFGSPMIDLSSPVGGSYNLPSLPDIDCSSTIMLDNIVRKDTNIDHGQPRPPSNRTVQSPNSSVPSPGLAGPVTMTSVHPPIRSPSASSVGSRGSSGSSSKPAGADSTHKVPVVMLEPIRIKQENSGPPENYDFPVVIVKQESDEESRPQNANYPRSILTSLLLNSSQSSTSEETVLRSDAPDSTGDQPGLHQDNSSNGKSEWLDPSQKSPLHVGETRKEDDPNEDWCAVCQNGGELLCCEKCPKVFHLSCHVPTLTNFPSGEWICTFCRDLSKPEVEYDCDAPSHNSEKKKTEGLVKLTPIDKRKCERLLLFLYCHEMSLAFQDPVPLTVPDYYKIIKNPMDLSTIKKRLQEDYSMYSKPEDFVADFRLIFQNCAEFNEPDSEVANAGIKLENYFEELLKNLYPEKRFPKPEFRNESEDNKFSDDSDDDFVQPRKKRLKSIEERQLLK	69.5	−0.243
TRIM26: human RING type E3 ligase expressed from lentiviral vector (protein, UniProt Q12899 1-539, looked up, lentiviral expression, human RING type E3 ligase expressed from lentiviral vector) Tripartite motif-containing …: MATSAPLRSLEEEVTCSICLDYLRDPVTIDCGHVFCRSCTTDVRPISGSRPVCPLCKKPFKKENIRPVWQLASLVENIERLKVDKGRQPGEVTREQQDAKLCERHREKLHYYCEDDGKLLCVMCRESREHRPHTAVLMEKAAQPHREKILNHLSTLRRDRDKIQGFQAKGEADILAALKKLQDQRQYIVAEFEQGHQFLREREEHLLEQLAKLEQELTEGREKFKSRGVGELARLALVISELEGKAQQPAAELMQDTRDFLNRYPRKKFWVGKPIARVVKKKTGEFSDKLLSLQRGLREFQGKLLRDLEYKTVSVTLDPQSASGYLQLSEDWKCVTYTSLYKSAYLHPQQFDCEPGVLGSKGFTWGKVYWEVEVEREGWSEDEEEGDEEEEGEEEEEEEEAGYGDGYDDWETDEDEESLGDEEEEEEEEEEEVLESCMVGVARDSVKRKGDLSLRPEDGVWALRLSSSGIWANTSPEAELFPALRPRRVGIALDYEGGTVTFTNAESQELIYTFTATFTRRLVPFLWLKWPGTRLLLRP	49.3	−0.5
TRIM22: human RING type E3 ligase expressed from lentiviral vector (protein, UniProt Q8IYM9 1-498, looked up) E3 ubiquitin-protein ligase …: MDFSVKVDIEKEVTCPICLELLTEPLSLDCGHSFCQACITAKIKESVIISRGESSCPVCQTRFQPGNLRPNRHLANIVERVKEVKMSPQEGQKRDVCEHHGKKLQIFCKEDGKVICWVCELSQEHQGHQTFRINEVVKECQEKLQVALQRLIKEDQEAEKLEDDIRQERTAWKNYIQIERQKILKGFNEMRVILDNEEQRELQKLEEGEVNVLDNLAAATDQLVQQRQDASTLISDLQRRLRGSSVEMLQDVIDVMKRSESWTLKKPKSVSKKLKSVFRVPDLSGMLQVLKELTDVQYYWVDVMLNPGSATSNVAISVDQRQVKTVRTCTFKNSNPCDFSAFGVFGCQYFSSGKYYWEVDVSGKIAWILGVHSKISSLNKRKSSGFAFDPSVNYSKVYSRYRPQYGYWVIGLQNTCEYNAFEDSSSSDPKVLTLFMAVPPCRIGVFLDYEAGIVSFFNVTNHGALIYKFSGCRFSRPAYPYFNPWNCLVPMTVCPPSS	49.4	−0.499
TRIM27: human RING type E3 ligase expressed from lentiviral vector (protein, UniProt P14373 1-513, looked up, lentiviral expression, human RING type E3 ligase expressed from lentiviral vector) Zinc finger protein RFP: MASGSVAECLQQETTCPVCLQYFAEPMMLDCGHNICCACLARCWGTAETNVSCPQCRETFPQRHMRPNRHLANVTQLVKQLRTERPSGPGGEMGVCEKHREPLKLYCEEDQMPICVVCDRSREHRGHSVLPLEEAVEGFKEQIQNQLDHLKRVKDLKKRRRAQGEQARAELLSLTQMEREKIVWEFEQLYHSLKEHEYRLLARLEELDLAIYNSINGAITQFSCNISHLSSLIAQLEEKQQQPTRELLQDIGDTLSRAERIRIPEPWITPPDLQEKIHIFAQKCLFLTESLKQFTEKMQSDMEKIQELREAQLYSVDVTLDPDTAYPSLILSDNLRQVRYSYLQQDLPDNPERFNLFPCVLGSPCFIAGRHYWEVEVGDKAKWTIGVCEDSVCRKGGVTSAPQNGFWAVSLWYGKEYWALTSPMTALPLRTPLQRVGIFLDYDAGEVSFYNVTERCHTFTFSHATFCGPVRPYFSLSYSGGKSAAPLIICPMSGIDGFSGHVGNHGHSMETSP	60.7	−0.355
TRIM29: human RING type E3 ligase expressed from lentiviral vector (protein, UniProt Q14134 1-588, looked up, lentiviral expression, human RING type E3 ligase expressed from lentiviral vector) Tripartite motif-containing …: MEAADASRSNGSSPEARDARSPSGPSGSLENGTKADGKDAKTTNGHGGEAAEGKSLGSALKPGEGRSALFAGNEWRRPIIQFVESGDDKNSNYFSMDSMEGKRSPYAGLQLGAAKKPPVTFAEKGELRKSIFSESRKPTVSIMEPGETRRNSYPRADTGLFSRSKSGSEEVLCDSCIGNKQKAVKSCLVCQASFCELHLKPHLEGAAFRDHQLLEPIRDFEARKCPVHGKTMELFCQTDQTCICYLCMFQEHKNHSTVTVEEAKAEKETELSLQKEQLQLKIIEIEDEAEKWQKEKDRIKSFTTNEKAILEQNFRDLVRDLEKQKEEVRAALEQREQDAVDQVKVIMDALDERAKVLHEDKQTREQLHSISDSVLFLQEFGALMSNYSLPPPLPTYHVLLEGEGLGQSLGNFKDDLLNVCMRHVEKMCKADLSRNFIERNHMENGGDHRYVNNYTNSFGGEWSAPDTMKRYSMYLTPKGGVRTSYQPSSPGRFTKETTQKNFNNLYGTKGNYTSRVWEYSSSIQNSDNDLPVVQGSSSFSLKGYPSLMRSQSPKAQPQTWKSGKQTMLSHYRPFYVNKGNGIGSNEAP	68	−0.262
TRIM23: human RING type E3 ligase expressed from lentiviral vector (protein, UniProt P36406 1-574, looked up) E3 ubiquitin-protein ligase …: MATLVVNKLGAGVDSGRQGSRGTAVVKVLECGVCEDVFSLQGDKVPRLLLCGHTVCHDCLTRLPLHGRAIRCPFDRQVTDLGDSGVWGLKKNFALLELLERLQNGPIGQYGAAEESIGISGESIIRCDEDEAHLASVYCTVCATHLCSECSQVTHSTKTLAKHRRVPLADKPHEKTMCSQHQVHAIEFVCLEEGCQTSPLMCCVCKEYGKHQGHKHSVLEPEANQIRASILDMAHCIRTFTEEISDYSRKLVGIVQHIEGGEQIVEDGIGMAHTEHVPGTAENARSCIRAYFYDLHETLCRQEEMALSVVDAHVREKLIWLRQQQEDMTILLSEVSAACLHCEKTLQQDDCRVVLAKQEITRLLETLQKQQQQFTEVADHIQLDASIPVTFTKDNRVHIGPKMEIRVVTLGLDGAGKTTILFKLKQDEFMQPIPTIGFNVETVEYKNLKFTIWDVGGKHKLRPLWKHYYLNTQAVVFVVDSSHRDRISEAHSELAKLLTEKELRDALLLIFANKQDVAGALSVEEITELLSLHKLCCGRSWYIQGCDARSGMGLYEGLDWLSRQLVAAGVLDVA	61.5	−0.345
TRIM32: human RING type E3 ligase expressed from lentiviral vector (protein, UniProt Q13049 2-653, looked up) E3 ubiquitin-protein ligase …: AAAAASHLNLDALREVLECPICMESFTEEQLRPKLLHCGHTICRQCLEKLLASSINGVRCPFCSKITRITSLTQLTDNLTVLKIIDTAGLSEAVGLLMCRSCGRRLPRQFCRSCGLVLCEPCREADHQPPGHCTLPVKEAAEERRRDFGEKLTRLRELMGELQRRKAALEGVSKDLQARYKAVLQEYGHEERRVQDELARSRKFFTGSLAEVEKSNSQVVEEQSYLLNIAEVQAVSRCDYFLAKIKQADVALLEETADEEEPELTASLPRELTLQDVELLKVGHVGPLQIGQAVKKPRTVNVEDSWAMEATASAASTSVTFREMDMSPEEVVASPRASPAKQRGPEAASNIQQCLFLKKMGAKGSTPGMFNLPVSLYVTSQGEVLVADRGNYRIQVFTRKGFLKEIRRSPSGIDSFVLSFLGADLPNLTPLSVAMNCQGLIGVTDSYDNSLKVYTLDGHCVACHRSQLSKPWGITALPSGQFVVTDVEGGKLWCFTVDRGSGVVKYSCLCSAVRPKFVTCDAEGTVYFTQGLGLNLENRQNEHHLEGGFSIGSVGPDGQLGRQISHFFSENEDFRCIAGMCVDARGDLIVADSSRKEILHFPKGGGYSVLIREGLTCPVGIALTPKGQLLVLDCWDHCIKIYSYHLRRYSTP	58.4	−0.384
RLIM: human RING type E3 ligase expressed from lentiviral vector (protein, UniProt Q9NVW2 1-624, looked up) E3 ubiquitin-protein ligase …: MENSDSNDKGSGDQSAAQRRSQMDRLDREEAFYQFVNNLSEEDYRLMRDNNLLGTPGESTEEELLRRLQQIKEGPPPQNSDENRGGDSSDDVSNGDSIIDWLNSVRQTGNTTRSGQRGNQSWRAVSRTNPNSGDFRFSLEINVNRNNGSQNSENENEPSARRSSGENVENNSQRQVENPRSESTSARPSRSERNSTEALTEVPPTRGQRRARSRSPDHRRTRARAERSRSPLHPMSEIPRRSHHSISSQTFEHPLVNETEGSSRTRHHVTLRQQISGPELLSRGLFAASGTRNASQGAGSSDTAASGESTGSGQRPPTIVLDLQVRRVRPGEYRQRDSIASRTRSRSQTPNNTVTYESERGGFRRTFSRSERAGVRTYVSTIRIPIRRILNTGLSETTSVAIQTMLRQIMTGFGELSYFMYSDSDSEPTGSVSNRNMERAESRSGRGGSGGGSSSGSSSSSSSSSSSSSSSSSSSSPSSSSGGESSETSSDLFEGSNEGSSSSGSSGARREGRHRAPVTFDESGSLPFLSLAQFFLLNEDDDDQPRGLTKEQIDNLAMRSFGENDALKTCSVCITEYTEGNKLRKLPCSHEYHVHCIDRWLSENSTCPICRRAVLASGNRESVV	82	−0.08
